The data set is described as follows: soluble on expression in E. coli; label from the status in PepcDB or PDB records.
“ETPAVQVSTNRQAIIINEQTQFKVDAALKNAGIQTDGMFVVDNSLKVRFKDTETQLKARDVIENTLGEGYITALNLLADSPEWMAKIKANPMFLGLDLRGGVHFTMQVDMKAAMQKTFERYSGDIRRELRREKIRSGTVRQAGNSLTVPLQDAGDVQKALPQLRKLFPEATLNSDGSNIVLTLSEEAVNKVCSDAVKQNITTLHNRVNELGVAEPVIQQSGADRIVVQLPGVQDTAKAKDIIGRTATLELRMVEDDPAKLREALEGNVPSGYELLSSGGDRPEILLISKQVELTGDNINDAQPSFDQMGAPAVSLSLDSAGGSIFGELTAANVGKRMAMVLIDQGKSEVVTAPVIRTAITGGRVEISGSMTTAEANDTSLLLRAGSLAAPMQIVEERTIGPSLGKENIEK”: the “soluble on expression in E. coli” value is “not soluble”.
The same measure for “MKRVFGILVCFMLLLSGTSVSFAQSEKTKQDKTEETTPKLAEQASSAIVIEQDTGKVLFDKNPNEKLPPASMTKIMTMLLIMEQVEKGKLKLTDKVRASEHAASMGGSQIFLEPGEEMTVNEMLKGIAIASGNDASVAVAEHIAGSEEGFVNMMNKKAKDLGLKNTHFQNPTGLPAKDHYSTANDMAIMAKELMKYPLIRKYTGKYEDYLREDTDKKFWLVNTNKLVRFYPGVDGVKTGFTTEAKYCLTASAEKNGMRVISVVMGAPTSKERNNQVTKLLDYAFGQYMTKKLYTRGEKIKTVQVGKGKKEKVDLVASDNVSLLMKKGENMDKVKQEVIAEKKVKAPIKKGDALGTLVIKKDKDVLLKQTIVAKEDVAAASWWELFKRSFGMFSTSK”: “not soluble”; for “MNDNLYSLIEQRILVLDGAMGTMIQRHGLDEQDYRGERFASHDHPLKGNNDLLVITRPDIIRSIHCDFLDAGADIIETCTFNANPISQSDYQLQDLTRELNVAAAKIARSAADEFTAKTPDKPRFVAGSIGPTNKTLSLSPDVNNPGFRAVTFQEMVDNYTAQLEGLHEGGVDLLLVETVFDTLNCKAALYAIEEYAVKTGWQVPVMVSGTVVDASGRTLSGQTTEAFWISISHMPSLLSVGLNCALGSKQMRPFIEALSNIAESYVSVYPNAGLPNEFGEYDDSPEYMAAQIAGFAESGFVNIVGGCCGTTPTHIRAIAEAVKTLPPRKRPANKHVLRLSGLEPLVVDETTGFINVGERTNVTGSRKF”: “not soluble”; for “MSRIEQLISDIESYIDNCKYYPLSNVKIIVNKEQLEDMLTELRLKTPDEVKKYQKILSNKDAILADAKEQADAIINAAQIQTEELINEHEIMQRAYAQANELIEQATAQAQTILDNATEEANSIRYGAMQYTDDMLAKLQYIIEHSIKDNKEKYDSLLSGLENVLSVVNNNRNELSGIEENSTEESADTDASNETDSQSDDEE”: “not soluble”.
As to “MEFRVYAGREELAGLVKPMRGGDVEIRIQPVERKVLEFVPLKAETAIEERKSIIVGLDPGITVGIAAIDLDGNIISVYSEKNMALSEIVRFISELGHPIIVATDVNPAPGLVEKIARSFKAQLFVPRESLKVEEKNELLKNLGISVSDDHQRDALEHHHHHH”, the “soluble on expression in E. coli” value is reported as “not soluble”.
The same measure for “MAKNKWQPTKHLGIYEYMTKKGKRYGIRVRYKQGNDYPEINKSGFETIAAAKVYKNNIENLKANKKEYVFTNEKLTLNTWFASYMEMFKKKNKSKDTIANKYSIYNNHLEIPFGNYYLTDISLDIYEDFLREKIKNGYANNSVKAMHKLMKSILNAAVRYEKLEKNRLQFAEIEQLEENEVIELKVLETDEFNVFISACRAFFTKYDFTMIYLAVWGMRRGEVMGVKLKNLTFDDAKQQVRITLDSTRTLRTPEGKGTKTPAGRRILLIDGEGYRLLKYSVEKAVSIAKDHGSVLHQDDFIFRNPTSNRPWAVTRMNDLLRKLEKEYDIKVYPHLLRHNFNTQALLAGANSNDLRKFIGHKNSSMTDHYSHATDEGREKLMNTMKDRLSGI”: “not soluble”; for “MHRGITVQTSDLDDGVTGVVGKVYIEASPKHVWAAITDYNNHKSFVPKLIDSGLISDNGREQVMFERGKTGIFLFRKTVYIKLSLQGEYPKRLDFHQIEGDFKVYEGDWLIERASDGKGSILTFRAKIKPDFFAPAMFVRKVQQNDLPMVLAAMKKRAESAEGSLEHHHHHH”: “not soluble”; for “AHHHHHHGSISREQILEVLEKYDKEKITIGVIGSHSALDITDGAKEEGFPTLVVAQRGRHKTYEKYFKLRKTRDGLVKGFIDEVIVLEKFSQIIDIQEELRKRNVIFIPNRSFVVYTGIDRVENEFLVPMFGTRSLLRTEERSEEKSYYWLLEKAKLPYPEEVKPEEIDEVGLVIVKLPHAKKRLERGFFTAASYKEFKEKSEKLIRLGVITREDLEKARIERYIIGPVFNFDFFYSPIDEEIELLGIDWRFETSLDGHVRLPAAQQLTLPEWQFEPEYTVCGHASSTLRESLLEKVFDMAEKYVEATKKYYPPGIIGPFTLQTAVDKDLNFYIYDVAPRTGGGTNIHMAMGHPYGNSLWRKPMSTGRRIALEIKRAIELDELEKVVT”: “not soluble”.
To “MKIATYNVRVDTEYDQDWQWSFRKEAVCQLINFHDWSLCCIQEVRPNQVRDLKAYTTFTCLSAEREGDGQGEGLAILYNEQKVQAIDTGYFWLSETPQQPSIHPEAGCPRIALWGLFKETTQNTPFLVINVHLDHISAHARLAGMTVILEELHDKIAQYPTLLMGDFNAESGEEVHQLVQKKFQDSKNLATHYGPRGTFQNFTYTKPWAELEEIDYIYVKGWQVQQTASLTDSIDGRFPSDHFPLEAEVAGENLYFQ” belongs “soluble”.
To “DIQMTQSPSSLSASVGDRVTITCKASQDIKSFLSWYQQKPEKAPKSLIYYATSLADGVPSRFSGSGSGTDYTLTISSLQPEDFATYYCLQHGESPYTFGGGTKVEIKRTVAAPSVFIFPPSDEQLKSGTASVVCLLNNFYPREAKVQWKVDNALQSGNSQESVTEQDSKDSTYSLSSTLTLSKADYEKHKVYACEVTHQGLSSPVTKSFNRGECT” belongs “soluble”; to “MNQHLLGNPKLTVTHVNEVKAGINHIVVDSVQYGNQEMIMEKDGTVEMRDGEKLYINIFRPNKDGKFPVVMSADTYGKDNKPKITNMGALWPTLGTIPTSSFTPEESPDPGFWVPNDYVVVKVALRGSDKSKGVLSPWSKREAEDYYEVIEWAANQSWSNGNIGTNGVSYLAVTQWWVASLNPPHLKAMIPWEGLNDMYREVAFHGGIPDTGFYRFWTQGIFARWTDNPNIEDLIQAQQEHPLFDDFWKQRQVPLSQIKTPLLTCASWSTQGLHNRGSFEGFKQAASEEKWLYVHGRKEWESYYARENLERQKSFFDFYLKEENNDWKDTPHVIYEVRDQFYKGEFKSASAFPLPNAEYTPLYLNAENHTLNHAKISSAHVAQYDSEDKQQDVSFKYTFDKDTELVGNMNLKLWVSTKDSDDMDLFAGIKKLDRRGNEVNFPDFNHIENGQVATGWLRVSHRELDQEKSSIAQPWHKHETELKLSQDEIVPVEIELLPSGTLFKQGETLEVVVKGSEIVIGNSTPGMKTRYEHEETVNKGMHMIYTGGKYDSQLIIPIVN”, “soluble”; to “MIYAGILAGGTGTRMGISNLPKQFLELGDRPILIHTIEKFVLEPSIEKIVVGVHGDWVSHAEDLVDKYLPLYKERIIITKGGADRNTSIKNIIEAIDAYRPLTPEDIVVTHDSVRPFITLRMIQDNIQLAQNHDAVDTVVEAVDTIVESTNGQFITDIPNRAHLYQGQTPQTFRCKDFMDLYGSLSDEEKEILTDACKIFVIKGKDVALAKGEYSNLKITTVTDLKIAKSMIEKD”, “soluble”.
As for “SRPVFAAKPDNEAIIDAQMKKPKVPVHAIATASHPMIRFIGHPEEQKNYDFFVPWLSKLPQWIAEGKQPYVMIHTADNIIAPELAANIYKNLQNHVALPDLAPFPANDGNSQLQMF”, the “soluble on expression in E. coli” value is on record as “not soluble”.
The same measure for “SRMQRDLSDSTVLRNLGVAFSYSLIAYHSVAKGNDKLQINKSALQKDLSENWEVLAEAIQTVMRRYNEPNAYEQLKELTRGQMIDAENLKKFIKTLSIPEEAKAELMKLTPETYTGLATQLVKAFS”: “not soluble”; for “MGSDKIHHHHHHMDRIQEMTLFAALAGQTSFTGVARHVGLSTATVTRAVASLESRLGILLVVRTTRNMRLTKAGQRFAEDCRRLLADLSEAENAAAGVHALPAGTLTVTAPQMFGALHVTPVLTRFLSEYPAVDIRAILVDRVVSMLDEGVDVAVRIGALRDSSLTAIRVGSVRRMVCASPVYLTQHGTPRHPDDLQQHATISTSAPERPPHWAFRVDDQDYSVNVASRLSLTSFQASINAALQHWGLTQVPHYQIREHLHNGRLVCVLEDFEIAPEPVHVVYSEGRRGSSRVRSFVDFCVSALREDLQFEAAG”: “not soluble”; for “SLQSYQSVDSIRAAALATVGPDAEAEATLDPGLRMPGCPIALQAKPTGTNTVEVACPQPAGWRLFVPLKVRRNQDVLVLRRGISAGETISLADISIEKRDAARIVGAVLADPVAAVGKTARRILPAGSLLSANDLVSQRLVRRGDTVPLVSRNGGLEVRMSGRALSDAGENERVSVENSSSRRVVQGIVEASGTVVVSR”: “soluble”.
As for “GSHMASMTGGQQMGRGSMKFSFELAVNTKKEDAWTYYSQVNQWFVWEGDLEQISLEGEFTTGQKGKMKMEDMPELAFTLVEVRENQCFSDLTATPFGNVLFEHEILENPDGTISLRHSVSLTDSDTTEEALAFLKQIFADVPESVGKLKQILETV”, the “soluble on expression in E. coli” value is on record as “soluble”.
Turning to “SNAMSKKAELAELVKELAVVHGKVTLSSGKEADYYVDLRRATLHARASRLIGELLRELTADWDYVAVGGLTLGADPVATSVMHADGREIHAFVVRKEAKKHGMQRRIEGPDVVGKKVLVVEDTTTTGNSPLTAVKALREAGAEVVGVATVVDRATGAADVIAAEGLEYRYILGLEDLGLA”, the “soluble on expression in E. coli” value is listed as “soluble”.
For “MGSDKIHHHHHHMALPEFKIAQLRHFVWVAELKGFHTAAEKACRTQPAISLSIRDLENKLSTILFEKRNAKTSNTELTPFGQYFLPKAKELIAHHDNVAQDMALMSEHKTGHLRLASVPSIACRMLPELLSKFIADVPELHISFYDDNSEAVLRKVEKQQVDIGIASLPHGHEHADITFTPIWEDQLGVVCREDHPFAEMTELHWKELRKQRLIRNGTSRLLEDTEAEPLLSDSQFLISNMLSLIAMLEEGLGITTLPWFAFPKNNSKLRFIPLTTPKIVRHIGIVQLKNKSLSPAAEALANFILKNTNQKKTSDLNPE”, the “soluble on expression in E. coli” value is “not soluble”.
Consider “MSLSDTTKTASTRTSVTDQEALDFHAQGRPGKLEITPTKPMATQRDLSLAYSPGVAVPVKAIAENPATAYDYTTRGNMVAVISNGTAILGLGNLGALASKPVMEGKSVLFKRFADVDSIDLEVDTEDADEFINCVRYLGPSFGGINLEDIKAPECFIIESRLRELMDIPVFHDDQHGTAIIAAAGLINAIELTGRDFKTTKLVCNGAGAAAIACMDLIKAMGFNPENITLCDTKGVIYQGRTEGMNQWKSAHAVKTDRRTLTEAMNGADVVFGLSQKGAFTEEMIRSMAPKPIIFAMANPDPEITPEEVSRIRDDAIMATGRSDYPNQVNNVLGFPYIFRGALDVRARQINDAMKIAAAQALADLAREDVPDDVAAAYQGNRPRFGSQYIIPVPFDPRLISAIPVAVAKAAIETGVAQREIPDLDAYARELSARRDPMASTTQRLYERVRRSPKRVVFAEAEEEQVMRAAISFTAQGLGTAILLGRDDIIKANAERAGIDLDRANIEITNARLSSRVDAYVDYLYARLQRGGFLLRDVQRLIHNDRNHFAACMVAMGDADAVVTGVTRNYSTALEDIRRCINTKPGHRVIGVSLVVSRNRTVFVADTAVHDMPNAEDLADIAEEAAHLARRFGYEPRVAMLAYSTFGQPVGERSDKVREAVKILDKRNVNFEVDGEMSADVALNHQRMQSQYPFARLSGAANVLVMPAIHSASISTKMLQELGGATVIGPLLVGLDKSVQITSMGAKDSDIVNMAAIAAYNAGREGHHHHHH”, for which the “soluble on expression in E. coli” value is reported as “not soluble”.

Values taken from the DeepSol protein solubility set.
